# Source: patent US12269859B2, “Synthetic immune receptors and methods of use thereof” (Angeles Therapeutics, Inc., priority 2016, dated 2025)
# B1: 111516-M03 (protein)
# chain: MALPVTALLLPLALLLHAARPLEGKPIPNPLLGLDSTGSGEDLKNVFPPEVAVFEPSKAEIAHTQKATLVCLATGFYPDHVELSWWVNGKEVHSGVCTDPQPLKEQPALNDSRYCLSSRLRVSATFWQNPRNHFRCQVQFYGLSENDEWTQDRAKPVTQIVSAEAWGRADCGITSASYHQGVLSATILYEILLGKATLYAVLVSALVLMAMVKRKDSRGRAKRSGSGATNFSLLKQAGDVEENPGPTSMALPVTALLLPLALLLHAARPDIVLTQSPLSLAVSLGQPAIISCKASQSVSFAGTSLMHWYHQKPGQQPRLLIYRASNLEAGVPDRFSGSGSKTDFTLTISPVEAEDAATYYCQQSREYPYTFGGGTKLEIKRGGGGSGGGGSGGGGSQVQLVQSGAEVVKPGASVKISCKASGYTFTGYFMNWVKQSPGQSLEWIGRIHPYDGDTFYNQKFQGKATLTVDKSSNTAHMELLSLTSEDFAVYYCTRYDGSRAMDYWGQGTTVTVSSTREQKLISEEDGSGIQNPDPAVYQLRDSKSSDKSVCLFTDFDSQTNVSQSKDSDVYITDKCVLDMRSMDFKSNSAVAWSNKSDFACANAFNNSIIPEDTFFPSSDVPCDVKLVEKSFETDTNLNFQNLSVIGFRILLLKVAGFNLLMTLRLWSSRAKRSGSGVKQTLNFDLLKLAGDVESNPGPSRGHMTEYKPTVRLATRDDVPRAVRTLAAAFADYPATRHTVDPDRHIERVTELQELFLTRVGLDIGKVWVADDGAAVAVWTTPESVEAGAVFAEIGPRMAELSGSRLAAQQQMEGLLAPHRPKEPAWFLATVGVSPDHQGKGLGSAVVLPGVEAAERAGVPAFLETSAPRNLPFYERLGFTVTADVEVPEGPRTWCMTRKPGA
# modifications: Polynucleotide encoding a Synthetic Immune Receptor (SIR)
# B2: 111815-E04 (protein)
# chain: MALPVTALLLPLALLLHAARPDEFEVQLVESGGGLVQAGGSLRLSCVASGISSSKRNMGWYRQAPGKQRESVATISSGGNKDYTDAVKDRFTISRDTTKNTVYLQMNSLKPEDTAVYYCKIEAGTGWATRRGYTYWGQGTLVTVSSLEGKPIPNPLLGLDSTGSGEDLKNVFPPEVAVFEPSEAEISHTQKATLVCLATGFYPDHVELSWWVNGKEVHSGVCTDPQPLKEQPALNDSRYCLSSRLRVSATFWQNPRNHFRCQVQFYGLSENDEWTQDRAKPVTQIVSAEAWGRADCGFTSESYQQGVLSATILYEILLGKATLYAVLVSALVLMAMVKRKDSRGRAKRSGSGATNFSLLKQAGDVEENPGPTSMDWIWRILFLVGAATGAHSFEVQLVESGGGSVQAGGSLRLSCTTSGRALNMYVMGWFRQAPGNEREFVAATSSSGGSTSYPDSVKGRFTISRDNAKNTVYLQMNSLKPEDTAAYRCAASPYVSTPTMNILEEYRYWGLGTQVTVSSTREQKLISEEDGSGIQNPDPAVYQLRDSKSSDKSVCLFTDFDSQTNVSQSKDSDVYITDKCVLDMRSMDFKSNSAVAWSNKSDFACANAFNNSIIPEDTFFPSPESSCDVKLVEKSFETDTNLNFQNLSVIGFRILLLKVAGFNLLMTLRLWSSRAKRSGSGVKQTLNFDLLKLAGDVESNPGPSRGHMTEYKPTVRLATRDDVPRAVRTLAAAFADYPATRHTVDPDRHIERVTELQELFLTRVGLDIGKVWVADDGAAVAVWTTPESVEAGAVFAEIGPRMAELSGSRLAAQQQMEGLLAPHRPKEPAWFLATVGVSPDHQGKGLGSAVVLPGVEAAERAGVPAFLETSAPRNLPFYERLGFTVTADVEVPEGPRTWCMTRKPGA
# modifications: Polynucleotide encoding a Synthetic Immune Receptor (SIR)
# B3: 010417-V07 (protein)
# chain: MALPVTALLLPLALLLHAARPLEGKPIPNPLLGLDSTGSGEDLKNVFPPEVAVFEPSKAEIAHTQKATLVCLATGFYPDHVELSWWVNGKEVHSGVCTDPQPLKEQPALNDSRYCLSSRLRVSATFWQNPRNHFRCQVQFYGLSENDEWTQDRAKPVTQIVSAEAWGRADCGITSASYHQGVLSATILYEILLGKATLYAVLVSALVLMAMVKRKDSRGRAKRSGSGATNFSLLKQAGDVEENPGPTSTMALPVTALLLPLALLLHAARPDIQMTQSPSSLSASVGDRVTITCKASQDVGIAVAWYQQKPGKVPKLLIYWASTRHTGVPDRFSGSGSGTDFTLTISSLQPEDVATYYCQQYSSYPYTFGQGTKVEIKGGGGSGGGGSGGGGSEVQLVESGGGLVQPGGSLRLSCAASGFDFSRYWMSWVRQAPGKGLEWIGEINPDSSTINYAPSLKDKFIISRDNAKNSLYLQMNSLRAEDTAVYYCARPDGNYWYFDVWGQGTLVTVSSTREAAAKEIVLTQSPATLSLSPGERATLSCSASSSVSYMHWYQQKPGQAPRLLIYDTSKLASGIPARFSGSGSGTDFTLTISSLEPEDVAVYYCFQGSVYPFTFGQGTKLEIKRGGGGSGGGGSGGGGSQVQLQESGPGLVKPSQTLSLTCTVSGGSISTSGMGVGWIRQHPGKGLEWIGHIWWDDDKRYNPALKSRVTISVDTSKNQFSLKLSSVTAADTAVYYCARMELWSYYFDYWGQGTLVTVSSTREQKLISEEDGSGIQNPDPAVYQLRDSKSSDKSVCLFTDFDSQTNVSQSKDSDVYITDKCVLDMRSMDFKSNSAVAWSNKSDFACANAFNNSIIPEDTFFPSSDVPCDVKLVEKSFETDTNLNFQNLSVIGFRILLLKVAGFNLLMTLRLWSSRAKRSGSGVKQTLNFDLLKLAGDVESNPGPSRGHMTEYKPTVRLATRDDVPRAVRTLAAAFADYPATRHTVDPDRHIERVTELQELFLTRVGLDIGKVWVADDGAAVAVWTTPESVEAGAVFAEIGPRMAELSGSRLAAQQQMEGLLAPHRPKEPAWFLATVGVSPDHQGKGLGSAVVLPGVEAAERAGVPAFLETSAPRNLPFYERLGFTVTADVEVPEGPRTWCMTRKPGA
# B4: 100615-C06 (protein)
# chain: MALPVTALLLPLALLLHAARPDIQMTQSPSSLSASVGDRVTITCRASQGIRNNLAWYQQKPGKAPKRLIYAASNLQSGVPSRFTGSGSGTEFTLIVSSLQPEDFATYYCLQHHSYPLTSGGGTKVELEGKPIPNPLLGLDSTGSGEDLKNVFPPEVAVFEPSKAEIAHTQKATLVCLATGFYPDHVELSWWVNGKEVHSGVCTDPQPLKEQPALNDSRYCLSSRLRVSATFWQNPRNHFRCQVQFYGLSENDEWTQDRAKPVTQIVSAEAWGRADCGITSASYHQGVLSATILYEILLGKATLYAVLVSALVLMAMVKRKDSRGRAKRSGSGATNFSLLKQAGDVEENPGPTSMDWIWRILFLVGAATGAHSFEEVQVLESGGGLVQPGGSLRLSCAASGFTFSSYAMSWVRQAPGKGLEWVSAISGSGGSTNYADSVKGRFTISRDNSKNTLYLQMNSLRAEDTAVYYCAGSSGWSEYWGQGTLVTVSSTREQKLISEEDGSGIQNPDPAVYQLRDSKSSDKSVCLFTDFDSQTNVSQSKDSDVYITDKCVLDMRSMDFKSNSAVAWSNKSDFACANAFNNSIIPEDTFFPSSDVPCDVKLVEKSFETDTNLNFQNLSVIGFRILLLKVAGFNLLMTLRLWSSRAKRSGSGVKQTLNFDLLKLAGDVESNPGPSRGHMTEYKPTVRLATRDDVPRAVRTLAAAFADYPATRHTVDPDRHIERVTELQELFLTRVGLDIGKVWVADDGAAVAVWTTPESVEAGAVFAEIGPRMAELSGSRLAAQQQMEGLLAPHRPKEPAWFLATVGVSPDHQGKGLGSAVVLPGVEAAERAGVPAFLETSAPRNLPFYERLGFTVTADVEVPEGPRTWCMTRKPGA
# modifications: Synthetic Immune Receptor (SIR)
# B5: 111915-U05 (protein)
# chain: MALPVTALLLPLALLLHAARPDEFEVQLVESGGGLVQAGGSLRLSCVASGISSSKRNMGWYRQAPGKQRESVATISSGGNKDYTDAVKDRFTISRDTTKNTVYLQMNSLKPEDTAVYYCKIEAGTGWATRRGYTYWGQGTLVTVSSLEGKPIPNPLLGLDSTGSGEDLKNVFPPEVAVFEPSEAEISHTQKATLVCLATGFYPDHVELSWWVNGKEVHSGVCTDPQPLKEQPALNDSRYCLSSRLRVSATFWQNPRNHFRCQVQFYGLSENDEWTQDRAKPVTQIVSAEAWGRADCGFTSESYQQGVLSATILYEILLGKATLYAVLVSALVLMAMVKRKDSRGRAKRSGSGATNFSLLKQAGDVEENPGPTSMDWIWRILFLVGAATGAHSFEVQLVESGGGSVQPGGSLTLSCGTSGRTFNVMGWFRQAPGKEREFVAAVRWSSTGIYYTQYADSVKSRFTISRDNAKNTVYLEMNSLKPEDTAVYYCAADTYNSNPARWDGYDFRGQGTQVTVSSTREQKLISEEDGSGIQNPDPAVYQLRDSKSSDKSVCLFTDFDSQTNVSQSKDSDVYITDKCVLDMRSMDFKSNSAVAWSNKSDFACANAFNNSIIPEDTFFPSPESSCDVKLVEKSFETDTNLNFQNLSVIGFRILLLKVAGFNLLMTLRLWSSRAKRSGSGVKQTLNFDLLKLAGDVESNPGPSRGHMTEYKPTVRLATRDDVPRAVRTLAAAFADYPATRHTVDPDRHIERVTELQELFLTRVGLDIGKVWVADDGAAVAVWTTPESVEAGAVFAEIGPRMAELSGSRLAAQQQMEGLLAPHRPKEPAWFLATVGVSPDHQGKGLGSAVVLPGVEAAERAGVPAFLETSAPRNLPFYERLGFTVTADVEVPEGPRTWCMTRKPGA
# modifications: Polynucleotide encoding a Synthetic Immune Receptor (SIR)
# Test system: target antigen-expressing cell line
# Experiment: Jurkat NFAT-GFP assay, coculture with target cell lines expressing the respective target antigen (summary Table 10A)
# Assay type: cell-based, human
# Set-up: key: The signs +/−, +, 2+ etc. after the name of the cell lines indicate the relative degree of positivity on the Jurkat-NFAT-GFP assay as measured by the % GFP positive cells; +: relative degree of positivity on the Jurkat-NFAT-GFP assay as measured by the % GFP positive cells; 2+: relative degree of positivity on the Jurkat-NFAT-GFP assay as measured by the % GFP positive cells
# Outline: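 Jurkat cells carrying an NFAT-driven GFP reporter and lentivirally expressing a SIR were cocultured with antigen-bearing target cells (E:T ~1:2) for about 4–18 h. GFP induction read by flow cytometry as % GFP+ cells, scored positive and graded (+/−, +, 2+) against parental Jurkat-NFAT-GFP cells.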
molecule,measurement,setting,value
B1,NFAT-GFP ASSAY Positive Cell lines,coculture with LoVo cells,(+/−)
same,NFAT-GFP ASSAY Positive Cell lines,coculture with SKOV3 cells,"SKOV3 (+), LoVo"
B2,NFAT-GFP ASSAY Positive Cell lines,coculture with Bv173 cells,(2+)
same,NFAT-GFP ASSAY Positive Cell lines,coculture with U266 cells,"U266 (2+), Bv173"
B3,NFAT-GFP ASSAY Positive Cell lines,coculture with L363 cells,"(+), L363 (+), U266"
same,NFAT-GFP ASSAY Positive Cell lines,coculture with NALM6 cells,"(+), L363 (+), U266"
same,NFAT-GFP ASSAY Positive Cell lines,coculture with RAJI cells,"RAJI (+), NALM6"
same,NFAT-GFP ASSAY Positive Cell lines,coculture with U266 cells,(+)
B4,NFAT-GFP ASSAY Positive Cell lines,coculture with HeLa (Hela) cells,(+/−)
same,NFAT-GFP ASSAY Positive Cell lines,coculture with LoVo cells,"LoVo (+/−), HeLa"
B5,NFAT-GFP ASSAY Positive Cell lines,coculture with Bv173 cells,"(+/−), THP1 (+/−),"
same,NFAT-GFP ASSAY Positive Cell lines,coculture with KG1 cells,KG1 (2+)
same,NFAT-GFP ASSAY Positive Cell lines,coculture with MOLM13 cells,"MOLM13 (+/−), Bv173"
same,NFAT-GFP ASSAY Positive Cell lines,coculture with THP1 cells,"(+/−), THP1 (+/−),"
